From patent US20230265146A1
Values joined by “and” are separate entries in the source; they are usually repeats but may differ in a detail not shown here. Equal values may be shown once.

Biological target: human IL-12 receptor on HEK-Blue IL-12 reporter cells (human) (UniProt P42701)
Sequence (Q99665 24-862, chain 2 of 2, other chains not shown): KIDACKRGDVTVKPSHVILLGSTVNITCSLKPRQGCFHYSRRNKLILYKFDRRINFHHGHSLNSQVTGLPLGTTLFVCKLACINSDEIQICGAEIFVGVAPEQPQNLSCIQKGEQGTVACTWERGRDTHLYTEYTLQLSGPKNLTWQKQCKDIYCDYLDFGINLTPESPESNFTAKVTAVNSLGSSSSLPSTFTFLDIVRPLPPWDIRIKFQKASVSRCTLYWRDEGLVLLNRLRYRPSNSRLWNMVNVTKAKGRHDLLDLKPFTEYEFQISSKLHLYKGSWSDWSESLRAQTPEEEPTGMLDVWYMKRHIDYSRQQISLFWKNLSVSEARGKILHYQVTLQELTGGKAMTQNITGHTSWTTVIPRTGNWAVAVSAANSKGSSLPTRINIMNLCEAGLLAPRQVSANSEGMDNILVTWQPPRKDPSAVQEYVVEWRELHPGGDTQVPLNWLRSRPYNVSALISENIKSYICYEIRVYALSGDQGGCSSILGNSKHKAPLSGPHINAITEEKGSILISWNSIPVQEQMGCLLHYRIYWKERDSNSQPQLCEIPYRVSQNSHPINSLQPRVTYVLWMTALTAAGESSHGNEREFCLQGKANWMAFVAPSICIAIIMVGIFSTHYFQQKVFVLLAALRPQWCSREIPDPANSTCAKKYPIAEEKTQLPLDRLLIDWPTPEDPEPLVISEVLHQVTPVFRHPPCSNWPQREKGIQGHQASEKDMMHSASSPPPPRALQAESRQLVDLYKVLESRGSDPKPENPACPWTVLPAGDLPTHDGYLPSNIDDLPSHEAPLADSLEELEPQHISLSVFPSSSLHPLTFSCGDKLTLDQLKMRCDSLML

## IL12 (ligand)
  EC50 (read off the curve): 0.09 nM and 0.05 nM
